{"source": "patent US20250177531A1", "about": "(FRED HUTCHINSON CANCER CENTER, published 2025)", "key": {"[1]": {"target": "KRAS G12V 7-16 10mer peptide … presented by HLA-A*11:01 (human)", "assay": "cell-based or functional assay"}, "[2]": {"target": "KRAS G12V 8-16 9mer peptide … presented by HLA-A*11:01 (human)", "assay": "cell-based or functional assay"}, "[3]": {"target": "RAB7B peptide … presented by HLA-A*11:01 (human)", "assay": "cell-based or functional assay"}, "[4]": {"target": "T1, KRAS G12V (same sequence in NRAS G12V and HRAS G12V) peptide on HLA-A*11:01 (human)", "T1 peptide": "VVGAVGVGK", "assay": "stated without data"}}}
{"binder": "TCR 11N4A (TCR) TCR alpha: QQKNDDQQVKQNSPSLSVQEGRISILNCDYTNSMFDYFLWYKKYPAEGPTFLISISSIKDKNEDGRFTVFLNKSAKHLSLHIVPSQPGDSAVYFCAASGVSGNTPLVFGKGTRLSVIANIQNPDPAVYQLRDSKSSDKSVCLFTDFDSQTNVSQSKDSDVYITDKCVLDMRSMDFKSNSAVAWSNKSDFACANAFNNSIIPEDTFFPSPESSCDVKLVEKSFETDTNLNFQNLSVIGFRILLLKVAGFNLLMTLRLWSS TCR beta: GVTQTPRYLIKTRGQQVTLSCSPISGHRSVSWYQQTPGQGLQFLFEYFSETQRNKGNFPGRFSGRQFSNSRSEMNVSTLELGDSALYLCASSVGTVEQYFGPGTRLTVTEDLKNVFPPEVAVFEPSEAEISHTQKATLVCLATGFYPDHVELSWWVNGKEVHSGVCTDPQPLKEQPALNDSRYCLSSRLRVSATFWQNPRNHFRCQVQFYGLSENDEWTQDRAKPVTQIVSAEAWGRADCGFTSESYQQGVLSATILYEILLGKATLYAVLVSALVLMAMVKRKDSRG", "values": [{"measurement": "EC50, CD137 surface expression assay (functional avidity), TCR 11N4A in primary human CD8+ T cells", "setting": "[1]", "result": 18.8, "unit": "nM"}, {"measurement": "EC50, CD137 surface expression assay (functional avidity), TCR 11N4A in primary human CD8+ T cells", "setting": "[2]", "result": 0.0595, "unit": "nM"}, {"measurement": "percent of T cells responding (CD137), peptide titration", "setting": "[2]", "result": "> 80", "unit": "%"}]}
{"binder": "TCR 11N4A (TCR, V domains shown) V domain 1: DQQVKQNSPSLSVQEGRISILNCDYTNSMFDYFLWYKKYPAEGPTFLISISSIKDKNEDGRFTVFLNKSAKHLSLHIVPSQPGDSAVYFCAASGVSGNTPLVFGKGTRLSVIA V domain 2: GVTQTPRYLIKTRGQQVTLSCSPISGHRSVSWYQQTPGQGLQFLFEYFSETQRNKGNFPGRFSGRQFSNSRSEMNVSTLELGDSALYLCASSVGTVEQYFGPGTRLTVTE", "values": [{"measurement": "EC50, CD137 expression, sort-purified TCR 11N4A-transduced T cells, peptide titration", "setting": "[3]", "result": "~35", "unit": "µg/mL"}]}
{"binder": "TCR 11N6 (TCR, V domains shown) Valpha: QQGEEDPQALSIQEGENATMNCSYKTSINNLQWYRQNSGRGLVHLILIRSNEREKHSGRLRVTLDTSKKSSSLLITASRAADTASYFCATDPMNTNAGKSTFGDGTTLTVKP Vbeta: GVAQSPRYKIIEKRQSVAFWCNPISGHATLYWYQQILGQGPKLLIQFQNNGVVDDSQLPKDRFSAERLKGVDSTLKIQPAKLEDSAVYLCASSPYGGSVSYEQYFGPGTRLTVT", "values": [{"measurement": "binding result", "setting": "[4]", "result": "recognises"}]}
